Results taken from paper PMC4357707 (Nucleic Acids Research, 2015).
Numbering of substitutions follows the chain as printed.

Assays:
HEN1 Δ38-45 = target: T1, HEN1 Δ38-45 (Arabidopsis thaliana, UniProt Q9C5Q8 1-37+=G+46-942, internal_change); experiment: EMSA
T1 sequence: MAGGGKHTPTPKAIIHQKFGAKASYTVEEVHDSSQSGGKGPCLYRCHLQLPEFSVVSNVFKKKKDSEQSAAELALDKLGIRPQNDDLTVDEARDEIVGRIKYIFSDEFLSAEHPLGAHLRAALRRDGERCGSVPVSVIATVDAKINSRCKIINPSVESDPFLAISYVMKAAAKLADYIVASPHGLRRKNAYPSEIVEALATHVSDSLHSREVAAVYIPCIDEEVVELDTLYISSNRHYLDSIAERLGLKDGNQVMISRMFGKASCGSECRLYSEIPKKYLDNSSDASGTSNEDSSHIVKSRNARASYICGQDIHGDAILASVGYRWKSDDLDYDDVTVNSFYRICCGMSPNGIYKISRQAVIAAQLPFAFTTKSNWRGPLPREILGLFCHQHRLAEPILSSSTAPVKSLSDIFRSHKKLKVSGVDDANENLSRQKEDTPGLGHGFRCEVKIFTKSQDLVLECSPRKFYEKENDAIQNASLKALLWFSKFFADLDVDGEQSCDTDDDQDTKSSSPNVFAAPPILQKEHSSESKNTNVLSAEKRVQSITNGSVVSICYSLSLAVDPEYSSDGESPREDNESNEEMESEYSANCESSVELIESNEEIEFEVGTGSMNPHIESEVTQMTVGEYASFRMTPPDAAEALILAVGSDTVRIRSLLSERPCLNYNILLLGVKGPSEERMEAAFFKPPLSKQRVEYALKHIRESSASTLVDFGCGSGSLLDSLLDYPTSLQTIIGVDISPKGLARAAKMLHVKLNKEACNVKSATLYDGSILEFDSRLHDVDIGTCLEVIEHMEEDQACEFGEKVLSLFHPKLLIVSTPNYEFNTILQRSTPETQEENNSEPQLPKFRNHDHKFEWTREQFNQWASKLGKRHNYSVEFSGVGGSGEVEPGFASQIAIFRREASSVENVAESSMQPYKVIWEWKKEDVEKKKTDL

HEN1 wt = target: T2, HEN1 wt (Arabidopsis thaliana, UniProt Q9C5Q8 1-942); experiment: EMSA
T2 sequence: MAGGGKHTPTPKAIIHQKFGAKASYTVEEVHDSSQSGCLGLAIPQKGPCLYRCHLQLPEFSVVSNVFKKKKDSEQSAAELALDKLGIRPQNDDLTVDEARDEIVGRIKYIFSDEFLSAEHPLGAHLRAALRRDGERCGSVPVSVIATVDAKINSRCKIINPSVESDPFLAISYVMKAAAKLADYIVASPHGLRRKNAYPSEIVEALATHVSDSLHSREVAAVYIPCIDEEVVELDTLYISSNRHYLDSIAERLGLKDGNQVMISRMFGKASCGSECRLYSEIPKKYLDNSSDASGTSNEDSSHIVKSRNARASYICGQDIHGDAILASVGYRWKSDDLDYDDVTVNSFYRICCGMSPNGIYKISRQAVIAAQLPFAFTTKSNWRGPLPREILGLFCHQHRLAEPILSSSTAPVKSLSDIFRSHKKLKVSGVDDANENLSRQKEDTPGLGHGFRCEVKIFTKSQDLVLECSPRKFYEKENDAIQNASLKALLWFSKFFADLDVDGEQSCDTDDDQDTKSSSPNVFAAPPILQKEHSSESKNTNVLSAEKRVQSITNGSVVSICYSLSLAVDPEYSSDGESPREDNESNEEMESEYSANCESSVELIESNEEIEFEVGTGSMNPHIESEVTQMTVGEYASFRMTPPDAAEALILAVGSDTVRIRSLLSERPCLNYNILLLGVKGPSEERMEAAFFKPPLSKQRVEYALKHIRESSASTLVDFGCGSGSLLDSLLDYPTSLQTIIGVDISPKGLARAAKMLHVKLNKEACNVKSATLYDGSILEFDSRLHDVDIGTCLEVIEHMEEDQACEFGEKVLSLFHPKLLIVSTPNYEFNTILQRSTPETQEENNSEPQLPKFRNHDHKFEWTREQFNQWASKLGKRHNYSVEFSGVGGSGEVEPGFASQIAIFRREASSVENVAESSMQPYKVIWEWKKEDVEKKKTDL

HEN1-RHK389,397,477AAA [1] = target: T3, HEN1-RHK389,397,477AAA (Arabidopsis thaliana, UniProt Q9C5Q8 1-942, R389A;H397A;K477A); experiment: EMSA
T3 sequence: T2 sequence with R389A, H397A, K477A

HEN1-RHK389,397,477AAA [2] = target: T3, HEN1-RHK389,397,477AAA; experiment: EMSA; remark: listed apart in the source
HYL1 = target: T4, HYL1 (Arabidopsis thaliana, UniProt O04492 1-419); experiment: EMSA
T4 sequence: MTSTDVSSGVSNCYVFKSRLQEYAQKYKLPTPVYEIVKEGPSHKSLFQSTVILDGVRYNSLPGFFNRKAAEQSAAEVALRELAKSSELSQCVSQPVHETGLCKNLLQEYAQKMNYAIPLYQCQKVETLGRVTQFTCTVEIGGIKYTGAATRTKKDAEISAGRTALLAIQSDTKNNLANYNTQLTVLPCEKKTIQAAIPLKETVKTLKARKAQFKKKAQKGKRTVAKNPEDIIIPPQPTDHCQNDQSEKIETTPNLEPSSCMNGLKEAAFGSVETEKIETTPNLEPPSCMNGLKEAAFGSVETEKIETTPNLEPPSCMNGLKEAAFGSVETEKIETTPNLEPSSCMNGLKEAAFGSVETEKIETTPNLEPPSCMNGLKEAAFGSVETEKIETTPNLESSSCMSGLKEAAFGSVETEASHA

HEN1 wt;HYL1 = target: T5, HEN1 wt;HYL1 (Arabidopsis thaliana;Arabidopsis …, UniProt Q9C5Q8;O04492 1-942;1-419, |); experiment: EMSA
T5 sequence 1: T2 sequence
T5 sequence 2: T4 sequence

[3] = target: T6, HEN1-R^1LR^2 (His-tagged, residues 1–519) (Arabidopsis thaliana, UniProt Q9C5Q8 1-519); experiment: pull-down
T6 sequence (looked up): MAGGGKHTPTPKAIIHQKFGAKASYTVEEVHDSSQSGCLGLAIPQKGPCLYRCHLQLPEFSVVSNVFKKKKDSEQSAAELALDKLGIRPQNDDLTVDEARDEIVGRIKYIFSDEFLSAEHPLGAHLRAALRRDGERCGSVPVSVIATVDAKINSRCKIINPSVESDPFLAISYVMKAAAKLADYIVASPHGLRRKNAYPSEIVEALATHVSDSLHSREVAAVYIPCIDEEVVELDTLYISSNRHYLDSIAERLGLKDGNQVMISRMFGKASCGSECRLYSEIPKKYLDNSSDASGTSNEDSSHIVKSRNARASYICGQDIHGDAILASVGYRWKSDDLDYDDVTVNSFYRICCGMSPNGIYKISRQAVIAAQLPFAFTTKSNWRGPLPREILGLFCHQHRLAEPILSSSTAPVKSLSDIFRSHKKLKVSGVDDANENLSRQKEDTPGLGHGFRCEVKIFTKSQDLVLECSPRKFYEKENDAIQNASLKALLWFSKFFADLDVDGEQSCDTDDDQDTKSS

B1: miR173CH3/miR173*CH3 (dsRNA)
RNA 1: UUCGCUUGCAGAGAGAAAUCAC
RNA 2: GAUUCUCUGUGUAAGCGAAAG
modifications: 2'-O-methyl on 3'-terminal nucleotide of both strands
- Kd (HEN1 Δ38-45): 2.1 ± 0.1 nM
- Kd (HEN1 wt): 7.2 ± 0.1 nM
- binding result (HEN1-RHK389,397,477AAA [1]): no binding

B2: siR173/siR173* (dsRNA)
RNA 1: UUAACGCUUGCAGAGAGAAUCAC
RNA 2: GAUUCUCUCUGCAAGCGUUAAAG
- Kd (HEN1-RHK389,397,477AAA [2]): 293 ± 27 nM
- binding result (HYL1): binds
- binding result (HEN1 wt;HYL1): binds

B3: GST-HYL1 (GST-fused full-length HYL1) (natural protein, UniProt O04492 1-419, looked up)
chain: T4 sequence
- binding result [3]: binds
